{"source": "patent US20130236459A1", "about": "(MERRIMACK PHARMACEUTICALS, published 2013)", "binders": {"B1": {"name": "B60-G1-M78 (bispecific antibody, human IgG1, lambda)", "heavy": "not shown", "light": "SSELTQDPAVSVALGQTVRITCQGDSLRSYYASWYQQKPGQAPVLVIYGKNNRPSGIPDRFSGSSSGNTASLTITGAQAEDEADYYCNSRDWPGNQWVFGGGTKVTVLGQPKAAPSVTLFPPSSEELQANKATLVCLVSDFYPGAVTVAWKADGSPVKVGVETTKPSKQSNNKYAASSYLSLTPEQWKSHRSYSCRVTHEGSTVEKTVAPAECS"}, "B2": {"name": "M27-G1-P4 (bispecific antibody, human IgG1, lambda)", "heavy": "not shown", "light": "SSELTQDPAVSVALGQTVRITCQGDSLRSYYASWYQQKPGQAPVLVIYGKNNRPSGIPDRFSGSSSGNTASLTITGAQAEDEADYYCNSRDTPGDQWVFGGGTKVTVLGQPKAAPSVTLFPPSSEELQANKATLVCLVSDFYPGAVTVAWKADGSPVKVGVETTKPSKQSNNKYAASSYLSLTPEQWKSHRSYSCRVTHEGSTVEKTVAPAECS"}, "B3": {"name": "M27-G1-M57 (bispecific antibody, human IgG1, lambda)", "heavy": "not shown", "light": "SSELTQDPAVSVALGQTVRITCQGDSLRSYYASWYQQKPGQAPVLVIYGKNNRPSGIPDRFSGSSSGNTASLTITGAQAEDEADYYCNSRDTPGDQWVFGGGTKVTVLGQPKAAPSVTLFPPSSEELQANKATLVCLVSDFYPGAVTVAWKADGSPVKVGVETTKPSKQSNNKYAASSYLSLTPEQWKSHRSYSCRVTHEGSTVEKTVAPAECS"}, "B4": {"name": "M27-G1-M78 (bispecific antibody, human IgG1, lambda)", "heavy": "not shown", "light": "SSELTQDPAVSVALGQTVRITCQGDSLRSYYASWYQQKPGQAPVLVIYGKNNRPSGIPDRFSGSSSGNTASLTITGAQAEDEADYYCNSRDTPGDQWVFGGGTKVTVLGQPKAAPSVTLFPPSSEELQANKATLVCLVSDFYPGAVTVAWKADGSPVKVGVETTKPSKQSNNKYAASSYLSLTPEQWKSHRSYSCRVTHEGSTVEKTVAPAECS"}, "B5": {"name": "M27/M7-G1-P4 (bispecific antibody, human IgG1, lambda)", "heavy": "not shown", "light": "SSELTQDPAVSVALGQTVRITCQGDSLRSYYASWYQQKPGQAPVLVIYGKNNRPSGIPDRFSGSSSGNTASLTITGAQAEDEADYYCNSRDTPGNKWVFGGGTKVTVIGQPKAAPSVTLFPPSSEELQANKATLVCLVSDFYPGAVTVAWKADGSPVKVGVETTKPSKQSNNKYAASSYLSLTPEQWKSHRSYSCRVTHEGSTVEKTVAPAECS"}, "B6": {"name": "M27/M7-G1-M57 (bispecific antibody, human IgG1, lambda)", "heavy": "not shown", "light": "SSELTQDPAVSVALGQTVRITCQGDSLRSYYASWYQQKPGQAPVLVIYGKNNRPSGIPDRFSGSSSGNTASLTITGAQAEDEADYYCNSRDTPGNKWVFGGGTKVTVIGQPKAAPSVTLFPPSSEELQANKATLVCLVSDFYPGAVTVAWKADGSPVKVGVETTKPSKQSNNKYAASSYLSLTPEQWKSHRSYSCRVTHEGSTVEKTVAPAECS"}, "B7": {"name": "M27/M7-G1-M78 (bispecific antibody, human IgG1, lambda)", "heavy": "not shown", "light": "SSELTQDPAVSVALGQTVRITCQGDSLRSYYASWYQQKPGQAPVLVIYGKNNRPSGIPDRFSGSSSGNTASLTITGAQAEDEADYYCNSRDTPGNKWVFGGGTKVTVIGQPKAAPSVTLFPPSSEELQANKATLVCLVSDFYPGAVTVAWKADGSPVKVGVETTKPSKQSNNKYAASSYLSLTPEQWKSHRSYSCRVTHEGSTVEKTVAPAECS"}, "B8": {"name": "M7-G1-M57 (bispecific antibody, human IgG1, lambda)", "heavy": "not shown", "light": "SSELTQDPAVSVALGQTVRITCQGDSLRSYYASWYQQKPGQAPVLVIYGKNNRPSGIPDRFSGSSSGNTASLTITGAQAEDEADYYCNSRDTPGNKWVFGGGTKVTVIGQPKAAPSVTLFPPSSEELQANKATLVCLVSDFYPGAVTVAWKADGSPVKVGVETTKPSKQSNNKYAASSYLSLTPEQWKSHRSYSCRVTHEGSTVEKTVAPAECS"}}, "test_in_all_cases": "cell-based or functional assay", "key": {"[1]": {"target": "T1, ErbB3 (HER3), endogenous on human tumor cell lines (human, UniProt P21860 20-1342)", "T1 sequence (P21860 20-1342 limits assumed)": "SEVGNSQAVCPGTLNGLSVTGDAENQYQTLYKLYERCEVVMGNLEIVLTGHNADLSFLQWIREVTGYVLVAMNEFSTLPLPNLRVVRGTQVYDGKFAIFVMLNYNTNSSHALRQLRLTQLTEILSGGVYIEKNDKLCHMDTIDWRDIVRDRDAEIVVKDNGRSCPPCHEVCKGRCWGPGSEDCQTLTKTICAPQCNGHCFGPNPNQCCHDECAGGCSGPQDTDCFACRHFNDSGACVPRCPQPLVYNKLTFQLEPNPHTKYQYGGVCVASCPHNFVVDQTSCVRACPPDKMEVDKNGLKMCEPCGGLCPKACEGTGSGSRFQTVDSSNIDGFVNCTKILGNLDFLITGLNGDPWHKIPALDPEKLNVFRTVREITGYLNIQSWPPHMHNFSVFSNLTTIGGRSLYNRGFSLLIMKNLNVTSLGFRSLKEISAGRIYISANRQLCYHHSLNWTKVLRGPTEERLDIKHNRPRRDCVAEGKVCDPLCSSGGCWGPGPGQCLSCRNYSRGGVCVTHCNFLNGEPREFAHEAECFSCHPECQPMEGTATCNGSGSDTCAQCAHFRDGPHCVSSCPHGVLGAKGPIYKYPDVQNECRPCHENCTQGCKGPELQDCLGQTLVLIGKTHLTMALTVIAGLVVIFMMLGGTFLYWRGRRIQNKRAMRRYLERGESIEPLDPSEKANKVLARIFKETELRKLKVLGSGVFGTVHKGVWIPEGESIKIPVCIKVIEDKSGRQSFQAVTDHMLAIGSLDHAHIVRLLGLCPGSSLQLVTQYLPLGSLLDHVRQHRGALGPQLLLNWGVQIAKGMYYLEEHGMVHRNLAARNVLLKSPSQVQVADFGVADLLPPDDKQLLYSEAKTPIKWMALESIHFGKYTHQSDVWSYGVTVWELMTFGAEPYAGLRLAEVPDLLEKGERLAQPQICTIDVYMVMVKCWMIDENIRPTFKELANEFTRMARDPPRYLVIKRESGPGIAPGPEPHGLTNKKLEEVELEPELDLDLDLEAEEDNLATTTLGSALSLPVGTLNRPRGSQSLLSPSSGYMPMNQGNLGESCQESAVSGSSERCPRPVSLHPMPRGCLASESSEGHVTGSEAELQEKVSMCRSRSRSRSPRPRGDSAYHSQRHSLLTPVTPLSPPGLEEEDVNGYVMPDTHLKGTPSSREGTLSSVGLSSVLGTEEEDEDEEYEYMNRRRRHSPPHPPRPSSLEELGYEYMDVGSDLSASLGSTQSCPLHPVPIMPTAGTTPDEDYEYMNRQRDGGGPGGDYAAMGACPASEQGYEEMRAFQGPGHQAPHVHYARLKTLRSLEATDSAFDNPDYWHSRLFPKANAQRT"}, "[2]": {"target": "T2, IGF-1R (receptor for insulin-like growth factor 1), endogenous on human tumor cell lines (human, UniProt P08069 31-1367)", "T2 sequence (P08069 31-1367)": "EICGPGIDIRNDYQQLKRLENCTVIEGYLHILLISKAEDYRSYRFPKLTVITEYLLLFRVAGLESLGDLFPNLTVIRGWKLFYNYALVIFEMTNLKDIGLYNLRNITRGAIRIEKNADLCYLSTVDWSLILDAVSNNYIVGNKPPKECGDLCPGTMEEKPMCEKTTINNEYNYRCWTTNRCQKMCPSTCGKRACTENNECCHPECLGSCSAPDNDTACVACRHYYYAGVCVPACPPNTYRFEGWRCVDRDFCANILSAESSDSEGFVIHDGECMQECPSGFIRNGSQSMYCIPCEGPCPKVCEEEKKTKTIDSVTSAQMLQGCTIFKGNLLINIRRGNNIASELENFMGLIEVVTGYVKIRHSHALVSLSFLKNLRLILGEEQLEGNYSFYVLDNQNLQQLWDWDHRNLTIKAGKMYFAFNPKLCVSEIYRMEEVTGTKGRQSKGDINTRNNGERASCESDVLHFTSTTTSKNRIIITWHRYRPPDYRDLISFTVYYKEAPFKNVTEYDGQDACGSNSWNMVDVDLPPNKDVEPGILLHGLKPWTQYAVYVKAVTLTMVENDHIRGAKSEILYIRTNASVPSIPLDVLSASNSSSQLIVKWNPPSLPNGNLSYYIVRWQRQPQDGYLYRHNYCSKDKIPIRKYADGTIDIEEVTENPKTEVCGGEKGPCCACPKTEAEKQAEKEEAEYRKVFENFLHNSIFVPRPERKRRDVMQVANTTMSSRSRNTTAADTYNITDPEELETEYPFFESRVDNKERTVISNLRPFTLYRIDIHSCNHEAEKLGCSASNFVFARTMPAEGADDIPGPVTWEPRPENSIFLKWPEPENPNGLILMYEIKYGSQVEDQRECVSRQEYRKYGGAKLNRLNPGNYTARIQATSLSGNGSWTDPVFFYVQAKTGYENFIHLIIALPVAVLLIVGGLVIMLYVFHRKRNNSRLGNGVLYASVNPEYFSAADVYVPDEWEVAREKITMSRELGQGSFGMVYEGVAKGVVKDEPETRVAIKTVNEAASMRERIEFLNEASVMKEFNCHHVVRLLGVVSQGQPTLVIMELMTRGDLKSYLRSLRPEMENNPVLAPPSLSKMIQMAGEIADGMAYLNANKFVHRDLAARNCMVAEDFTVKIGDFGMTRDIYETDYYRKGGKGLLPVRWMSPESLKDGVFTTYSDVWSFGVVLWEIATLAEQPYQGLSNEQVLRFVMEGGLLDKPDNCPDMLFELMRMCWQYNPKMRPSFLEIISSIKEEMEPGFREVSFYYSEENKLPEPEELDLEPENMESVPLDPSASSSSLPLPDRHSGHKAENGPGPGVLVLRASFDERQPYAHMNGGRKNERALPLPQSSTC"}, "[3]": {"target": "T1, ErbB3 (HER3), endogenous on human tumor …", "remark": "listed apart in the source"}, "[4]": {"target": "T2, IGF-1R (receptor for insulin-like …)", "remark": "listed apart in the source"}}, "note": "Where two headings read alike, the source gives them in different places.", "data": [{"binder": "B1", "values": [{"measurement": "pErbB3 IC50 (BxPC-3)", "setting": "[1]", "result": "1e-11 M (inferred)"}, {"measurement": "pIGF1R IC50 (BxPC-3)", "setting": "[2]", "result": "1.4e-09 M (inferred)"}, {"measurement": "pErbB3 % Inhibition (BxPC-3)", "setting": "[3]", "result": 115, "unit": "%"}, {"measurement": "pErbB3 IC50 (BxPC-3)", "setting": "[3]", "result": "8e-11 M (inferred)"}, {"measurement": "pIGF1R % Inhibition (BxPC-3)", "setting": "[4]", "result": 86, "unit": "%"}, {"measurement": "pIGF1R IC50 (BxPC-3)", "setting": "[4]", "result": "3.5e-09 M (inferred)"}]}, {"binder": "B2", "values": [{"measurement": "pErbB3 % Inhibition (BxPC-3)", "setting": "[3]", "result": 106, "unit": "%"}, {"measurement": "pErbB3 IC50 (BxPC-3)", "setting": "[3]", "result": "1e-10 M (inferred)"}, {"measurement": "pIGF1R % Inhibition (BxPC-3)", "setting": "[4]", "result": 88, "unit": "%"}, {"measurement": "pIGF1R IC50 (BxPC-3)", "setting": "[4]", "result": "3e-09 M (inferred)"}]}, {"binder": "B3", "values": [{"measurement": "pErbB3 % Inhibition (BxPC-3)", "setting": "[3]", "result": 88, "unit": "%"}, {"measurement": "pErbB3 IC50 (BxPC-3)", "setting": "[3]", "result": "3.1e-10 M (inferred)"}, {"measurement": "pIGF1R % Inhibition (BxPC-3)", "setting": "[4]", "result": 83, "unit": "%"}, {"measurement": "pIGF1R IC50 (BxPC-3)", "setting": "[4]", "result": "8.1e-09 M (inferred)"}]}, {"binder": "B4", "values": [{"measurement": "pErbB3 % Inhibition (BxPC-3)", "setting": "[3]", "result": 107, "unit": "%"}, {"measurement": "pErbB3 IC50 (BxPC-3)", "setting": "[3]", "result": "1.2e-10 M (inferred)"}, {"measurement": "pIGF1R % Inhibition (BxPC-3)", "setting": "[4]", "result": 87, "unit": "%"}, {"measurement": "pIGF1R IC50 (BxPC-3)", "setting": "[4]", "result": "1.4e-09 M (inferred)"}]}, {"binder": "B5", "values": [{"measurement": "pErbB3 % Inhibition (BxPC-3)", "setting": "[3]", "result": 111, "unit": "%"}, {"measurement": "pErbB3 IC50 (BxPC-3)", "setting": "[3]", "result": "4e-11 M (inferred)"}, {"measurement": "pIGF1R % Inhibition (BxPC-3)", "setting": "[4]", "result": 99, "unit": "%"}, {"measurement": "pIGF1R IC50 (BxPC-3)", "setting": "[4]", "result": "1.3e-08 M (inferred)"}]}, {"binder": "B6", "values": [{"measurement": "pErbB3 % Inhibition (BxPC-3)", "setting": "[3]", "result": 179, "unit": "%"}, {"measurement": "pErbB3 IC50 (BxPC-3)", "setting": "[3]", "result": "1.5e-10 M (inferred)"}, {"measurement": "pIGF1R % Inhibition (BxPC-3)", "setting": "[4]", "result": 91, "unit": "%"}, {"measurement": "pIGF1R IC50 (BxPC-3)", "setting": "[4]", "result": "7.5e-09 M (inferred)"}]}, {"binder": "B7", "values": [{"measurement": "pErbB3 % Inhibition (BxPC-3)", "setting": "[3]", "result": 140, "unit": "%"}, {"measurement": "pErbB3 IC50 (BxPC-3)", "setting": "[3]", "result": "1.1e-10 M (inferred)"}, {"measurement": "pIGF1R % Inhibition (BxPC-3)", "setting": "[4]", "result": 91, "unit": "%"}, {"measurement": "pIGF1R IC50 (BxPC-3)", "setting": "[4]", "result": "1e-09 M (inferred)"}]}, {"binder": "B8", "values": [{"measurement": "pErbB3 IC50 (BxPC-3)", "setting": "[1]", "result": "5.2e-11 M (inferred)"}, {"measurement": "pIGF1R IC50 (BxPC-3)", "setting": "[2]", "result": "2.1e-08 M (inferred)"}, {"measurement": "pErbB3 % Inhibition (BxPC-3)", "setting": "[3]", "result": 124, "unit": "%"}, {"measurement": "pErbB3 IC50 (BxPC-3)", "setting": "[3]", "result": "5.2e-11 M (inferred)"}, {"measurement": "pIGF1R % Inhibition (BxPC-3)", "setting": "[4]", "result": 82, "unit": "%"}, {"measurement": "pIGF1R IC50 (BxPC-3)", "setting": "[4]", "result": "2.1e-08 M (inferred)"}]}]}
